Data reported in publication PMC6277223 (Neoplasia (New York, N.Y.), 2018).

Molecular target: His-SIRT6 (UniProt Q8N6T7 1-355)
Assay: pull-down

Sequence of His-SIRT6 (Q8N6T7 whole entry): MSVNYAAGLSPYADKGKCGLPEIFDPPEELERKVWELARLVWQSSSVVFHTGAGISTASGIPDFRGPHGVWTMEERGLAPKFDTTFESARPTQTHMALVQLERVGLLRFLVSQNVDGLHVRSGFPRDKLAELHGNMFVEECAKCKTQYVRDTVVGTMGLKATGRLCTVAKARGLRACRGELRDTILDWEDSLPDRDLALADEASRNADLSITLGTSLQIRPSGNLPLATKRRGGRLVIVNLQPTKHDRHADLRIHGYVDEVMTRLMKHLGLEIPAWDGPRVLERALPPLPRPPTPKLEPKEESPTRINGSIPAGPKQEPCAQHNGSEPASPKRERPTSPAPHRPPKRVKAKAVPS

binding result: binds
B1: GST-PKCζ N-terminus (1-251 aa) (domain or fragment, UniProt Q05513 1-251, looked up)
chain: MPSRTGPKMEGSGGRVRLKAHYGGDIFITSVDAATTFEELCEEVRDMCRLHQQHPLTLKWVDSEGDPCTVSSQMELEEAFRLARQCRDEGLIIHVFPSTPEQPGLPCPGEDKSIYRRGARRWRKLYRANGHLFQAKRFNRRAYCGQCSERIWGLARQGYRCINCKLLVHKRCHGLVPLTCRKHMDSVMPSQEPPVDDKNEDADLPSEETDGIAYISSSRKHDSIKDDSEDLKPVIDGMDGIKISQGLGLQD
